Measurements published in patent publication US11833164B2, “Methods of treating Fabry disease in patients having a mutation in the GLA gene” (Amicus Therapeutics, Inc., priority 2019, dated 2023).

System: mutant form of α-Gal A expressed in HEK-293 cells
Assay: HEK assay (GLP HEK / Migalastat Amenability Assay): α-Gal A activity in lysates of transiently transfected HEK-293 cells incubated with or without 10 μM migalastat
Type: cell-based, human
Conditions: for Absolute increase (% WT): 10 μM migalastat versus baseline; for Relative increase: 10 μM migalastat α-Gal A activity relative to baseline; for 10 μM migalastat α-Gal A activity (% WT): 5 days; for 10 μM migalastat α-Gal A activity (% WT) / Baseline α-Gal A activity (% WT): percentage of baseline wild-type α-Gal A activity; for 10 μM migalastat α-Gal A activity (% WT) / Baseline α-Gal A activity (% WT) / Baseline α-Gal A activity / 10 μM migalastat α-Gal A activity: mean ± SEM; for Baseline α-Gal A activity / 10 μM migalastat α-Gal A activity: lysates of HEK-293 cells transfected with the mutant form; for Baseline α-Gal A activity: incubated 5 days in the absence of migalastat; for 10 μM migalastat α-Gal A activity: incubated 5 days with 10 μM migalastat
Procedure, shortened: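 HEK-293 cells transiently transfected with mutant α-Gal A and incubated with or without 10 μM migalastat; lysate activity given as nmol free 4-MU released per mg protein per hour. Values are mean±SEM.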

Molecule	Absolute increase (% WT)	Relative increase	10 μM migalastat α-Gal A activity (% WT)	Baseline α-Gal A activity (% WT) (absence of migalastat)	Baseline α-Gal A activity	10 μM migalastat α-Gal A activity	Baseline α-Gal A activity (nmol/mg/hr) (absence of migalastat, mean activity below the limit of detection (<142 nmol/mg/hr))
F145L (protein) MQLRNPELHLGCALALRFLALVSWDIPGARALDNGLARTPTMGWLHWERFMCNLDCQEEPDSCISEKLFMEMAELMVSEGWKDAGYEYLCIDDCWMAPQRDSEGRLQADPQRFPHGIRQLANYVHSKGLKLGIYADVGNKTCAGLPGSFGYYDIDAQTFADWGVDLLKFDGCYCDSLENLADGYKHMSLALNRTGRSIVYSCEWPLYMWPFQKPNYTEIRQYCNHWRNFADIDDSWKSIKSILDWTSFNQERIVDVAGPGGWNDPDMLVIGNFGLSWNQQVTQMALWAIMAAPLFMSNDLRHISPQAKALLQDKDVIAINQDPLGKQGYQLRQGDNFEVWERPLSGLAWAVAMINRQEIGGPRSYTIAVASLGKGVACNPACFITQLLPVKRKLGFYEWTSRLRSHINPTGTVLLQLENTMQMSLKDLL	61.8 % WT	5.5	75.7 ± 2.9 % WT	13.9 ± 0.8 % WT	5455 ± 412 nmol/mg/h	29794 ± 1799 nmol/mg/h	
F145Y (protein) MQLRNPELHLGCALALRFLALVSWDIPGARALDNGLARTPTMGWLHWERFMCNLDCQEEPDSCISEKLFMEMAELMVSEGWKDAGYEYLCIDDCWMAPQRDSEGRLQADPQRFPHGIRQLANYVHSKGLKLGIYADVGNKTCAGYPGSFGYYDIDAQTFADWGVDLLKFDGCYCDSLENLADGYKHMSLALNRTGRSIVYSCEWPLYMWPFQKPNYTEIRQYCNHWRNFADIDDSWKSIKSILDWTSFNQERIVDVAGPGGWNDPDMLVIGNFGLSWNQQVTQMALWAIMAAPLFMSNDLRHISPQAKALLQDKDVIAINQDPLGKQGYQLRQGDNFEVWERPLSGLAWAVAMINRQEIGGPRSYTIAVASLGKGVACNPACFITQLLPVKRKLGFYEWTSRLRSHINPTGTVLLQLENTMQMSLKDLL	23.5 % WT	1.2	131.7 ± 5.1 % WT	108.1 ± 6.2 % WT	41985 ± 2942 nmol/mg/h	51524 ± 2970 nmol/mg/h	
F145V (protein) MQLRNPELHLGCALALRFLALVSWDIPGARALDNGLARTPTMGWLHWERFMCNLDCQEEPDSCISEKLFMEMAELMVSEGWKDAGYEYLCIDDCWMAPQRDSEGRLQADPQRFPHGIRQLANYVHSKGLKLGIYADVGNKTCAGVPGSFGYYDIDAQTFADWGVDLLKFDGCYCDSLENLADGYKHMSLALNRTGRSIVYSCEWPLYMWPFQKPNYTEIRQYCNHWRNFADIDDSWKSIKSILDWTSFNQERIVDVAGPGGWNDPDMLVIGNFGLSWNQQVTQMALWAIMAAPLFMSNDLRHISPQAKALLQDKDVIAINQDPLGKQGYQLRQGDNFEVWERPLSGLAWAVAMINRQEIGGPRSYTIAVASLGKGVACNPACFITQLLPVKRKLGFYEWTSRLRSHINPTGTVLLQLENTMQMSLKDLL	5.7 % WT		5.7 ± 0.6 % WT			2359 ± 333 nmol/mg/h	BLD (“BLD” indicates that the mean α-Gal A activity was below the limit of detection (<142 nmol/mg/hr))
P146T (protein) MQLRNPELHLGCALALRFLALVSWDIPGARALDNGLARTPTMGWLHWERFMCNLDCQEEPDSCISEKLFMEMAELMVSEGWKDAGYEYLCIDDCWMAPQRDSEGRLQADPQRFPHGIRQLANYVHSKGLKLGIYADVGNKTCAGFTGSFGYYDIDAQTFADWGVDLLKFDGCYCDSLENLADGYKHMSLALNRTGRSIVYSCEWPLYMWPFQKPNYTEIRQYCNHWRNFADIDDSWKSIKSILDWTSFNQERIVDVAGPGGWNDPDMLVIGNFGLSWNQQVTQMALWAIMAAPLFMSNDLRHISPQAKALLQDKDVIAINQDPLGKQGYQLRQGDNFEVWERPLSGLAWAVAMINRQEIGGPRSYTIAVASLGKGVACNPACFITQLLPVKRKLGFYEWTSRLRSHINPTGTVLLQLENTMQMSLKDLL	25.0 % WT	1.8	58.6 ± 2.4 % WT	33.6 ± 1.5 % WT	13711 ± 1154 nmol/mg/h	24123 ± 2081 nmol/mg/h	
P146H (protein) MQLRNPELHLGCALALRFLALVSWDIPGARALDNGLARTPTMGWLHWERFMCNLDCQEEPDSCISEKLFMEMAELMVSEGWKDAGYEYLCIDDCWMAPQRDSEGRLQADPQRFPHGIRQLANYVHSKGLKLGIYADVGNKTCAGFHGSFGYYDIDAQTFADWGVDLLKFDGCYCDSLENLADGYKHMSLALNRTGRSIVYSCEWPLYMWPFQKPNYTEIRQYCNHWRNFADIDDSWKSIKSILDWTSFNQERIVDVAGPGGWNDPDMLVIGNFGLSWNQQVTQMALWAIMAAPLFMSNDLRHISPQAKALLQDKDVIAINQDPLGKQGYQLRQGDNFEVWERPLSGLAWAVAMINRQEIGGPRSYTIAVASLGKGVACNPACFITQLLPVKRKLGFYEWTSRLRSHINPTGTVLLQLENTMQMSLKDLL	21.8 % WT	3.7	30.2 ± 2.1 % WT	8.5 ± 0.7 % WT	3220 ± 211 nmol/mg/h	11903 ± 844 nmol/mg/h	
P146A (protein) MQLRNPELHLGCALALRFLALVSWDIPGARALDNGLARTPTMGWLHWERFMCNLDCQEEPDSCISEKLFMEMAELMVSEGWKDAGYEYLCIDDCWMAPQRDSEGRLQADPQRFPHGIRQLANYVHSKGLKLGIYADVGNKTCAGFAGSFGYYDIDAQTFADWGVDLLKFDGCYCDSLENLADGYKHMSLALNRTGRSIVYSCEWPLYMWPFQKPNYTEIRQYCNHWRNFADIDDSWKSIKSILDWTSFNQERIVDVAGPGGWNDPDMLVIGNFGLSWNQQVTQMALWAIMAAPLFMSNDLRHISPQAKALLQDKDVIAINQDPLGKQGYQLRQGDNFEVWERPLSGLAWAVAMINRQEIGGPRSYTIAVASLGKGVACNPACFITQLLPVKRKLGFYEWTSRLRSHINPTGTVLLQLENTMQMSLKDLL	25.4 % WT	1.6	64.1 ± 4.4 % WT	38.7 ± 2.5 % WT	15393 ± 1271 nmol/mg/h	25029 ± 1628 nmol/mg/h	
P146L (protein) MQLRNPELHLGCALALRFLALVSWDIPGARALDNGLARTPTMGWLHWERFMCNLDCQEEPDSCISEKLFMEMAELMVSEGWKDAGYEYLCIDDCWMAPQRDSEGRLQADPQRFPHGIRQLANYVHSKGLKLGIYADVGNKTCAGFLGSFGYYDIDAQTFADWGVDLLKFDGCYCDSLENLADGYKHMSLALNRTGRSIVYSCEWPLYMWPFQKPNYTEIRQYCNHWRNFADIDDSWKSIKSILDWTSFNQERIVDVAGPGGWNDPDMLVIGNFGLSWNQQVTQMALWAIMAAPLFMSNDLRHISPQAKALLQDKDVIAINQDPLGKQGYQLRQGDNFEVWERPLSGLAWAVAMINRQEIGGPRSYTIAVASLGKGVACNPACFITQLLPVKRKLGFYEWTSRLRSHINPTGTVLLQLENTMQMSLKDLL	12.4 % WT	1.5	37.1 ± 2.2 % WT	24.7 ± 1.8 % WT	9940 ± 899 nmol/mg/h	14540 ± 903 nmol/mg/h	
